Results reported in paper PMC2950913 (Nature structural & molecular biology, 2010).

Molecular target: T1, RAD51 recombinase (human, UniProt Q06609 1-339)
T1 sequence: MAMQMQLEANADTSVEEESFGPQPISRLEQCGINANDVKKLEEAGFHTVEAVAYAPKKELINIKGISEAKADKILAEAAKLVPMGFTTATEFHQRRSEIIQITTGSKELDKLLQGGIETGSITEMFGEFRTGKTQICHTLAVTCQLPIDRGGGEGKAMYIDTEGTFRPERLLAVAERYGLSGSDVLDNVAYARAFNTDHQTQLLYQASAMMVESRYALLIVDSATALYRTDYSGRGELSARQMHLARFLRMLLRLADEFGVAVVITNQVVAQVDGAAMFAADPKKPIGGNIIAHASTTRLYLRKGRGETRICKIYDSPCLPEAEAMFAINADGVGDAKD
Test: pull-down

B1: GST-tagged PALB2 1-184 fragment (domain or fragment)
chain: MDEPPGKPLSCEEKEKLKEKLAFLKREYSKTLARLQRAQRAEKIKHSIKKTVEEQDCLSQQDLSPQLKHSEPKNKICVYDKLHIKTHLDEETGEKTSITLDVGPESFNPGDGPGGLPIQRTDDTQEHFPHRVSDPSGEQKQKLPSRRKKQQKRTFISQERDCVFGTDSLRLSGKRLKEQEEISS
binding result: binds
